Source: PMC6292858

Target: DREP2 CIDE domain (amino acids 1–84), wild-type (Drosophila melanogaster)
Assay: SEC-MALS; self-association; Superdex 200 HR 10/30 coupled to three-angle light scattering and refractive index detectors, 0.2 mL/min; wild type measured in 50 mM NaCl and in 1 M NaCl

Work on “DREP2 CIDE domain (amino acids 1–84), wild-type (domain or fragment)” yielded a stoichiometry N of 16 to 18 molecules.
